Results taken from patent publication US8242083B2, “Kinase substrates” (PerkinElmer Health Sciences, Inc., priority 2008, dated 2012).

Key:
Type in all cases: biochemical
FES = FES (Homo sapiens, UniProt P07332); assay: TR-FRET kinase assay, FES; settings: Kinase Concentration 1 nM; 50 nM ULight-labeled substrate, 200 micromolar ATP, 2 hours
Procedure: (§1) TR-FRET kinase assays are performed under standardized conditions: various individual kinases are incubated with 50 nM of kinase substrate BRB1 labeled with the TR-FRET acceptor dye ULight (PerkinElmer) and 200 micromolar ATP in 10 μL of kinase assay buffer (50 mM HEPES pH7.5, 10 mM MgCl2, 3 mM MnCl2, 1 mM EGTA, 2 mM DTT and 0.01% Tween-20) for 2 hours at room temperature. Reactions are stopped with EDTA, and anti-phospho-tyrosine antibodies (clone PT66) labeled with the TR-FRET europium chelate donor dye are added to a final concentration of 2 nM in a final volume of 20 μL. The TR-FRET signal emitted at 665 nm is read one hour after the addition of antibodies using a TR-FRET plate reader such as the Envision® Multilabel Plate reader (PerkinElmer). The emitted signal at 665 nm is proportional to the extent of peptide phosphorylation, Control reactions indicative of background are performed excluding ATP from the reaction.
(§2) Assay conditions are identical to those used described for FIG. 1.

ALK = ALK (Homo sapiens, UniProt Q9UM73); assay: TR-FRET kinase assay, ALK; settings: Kinase Concentration 4 nM; 50 nM ULight-labeled substrate, 200 micromolar ATP, 2 hours
Procedure: as §1, §2

EphA5 = EphA5 (Homo sapiens, UniProt P54756); assay: TR-FRET kinase assay, EphA5; settings: Kinase Concentration 1 nM; 50 nM ULight-labeled substrate, 200 micromolar ATP, 2 hours
EphA5, sequence (P54756 25-1037, species assumed): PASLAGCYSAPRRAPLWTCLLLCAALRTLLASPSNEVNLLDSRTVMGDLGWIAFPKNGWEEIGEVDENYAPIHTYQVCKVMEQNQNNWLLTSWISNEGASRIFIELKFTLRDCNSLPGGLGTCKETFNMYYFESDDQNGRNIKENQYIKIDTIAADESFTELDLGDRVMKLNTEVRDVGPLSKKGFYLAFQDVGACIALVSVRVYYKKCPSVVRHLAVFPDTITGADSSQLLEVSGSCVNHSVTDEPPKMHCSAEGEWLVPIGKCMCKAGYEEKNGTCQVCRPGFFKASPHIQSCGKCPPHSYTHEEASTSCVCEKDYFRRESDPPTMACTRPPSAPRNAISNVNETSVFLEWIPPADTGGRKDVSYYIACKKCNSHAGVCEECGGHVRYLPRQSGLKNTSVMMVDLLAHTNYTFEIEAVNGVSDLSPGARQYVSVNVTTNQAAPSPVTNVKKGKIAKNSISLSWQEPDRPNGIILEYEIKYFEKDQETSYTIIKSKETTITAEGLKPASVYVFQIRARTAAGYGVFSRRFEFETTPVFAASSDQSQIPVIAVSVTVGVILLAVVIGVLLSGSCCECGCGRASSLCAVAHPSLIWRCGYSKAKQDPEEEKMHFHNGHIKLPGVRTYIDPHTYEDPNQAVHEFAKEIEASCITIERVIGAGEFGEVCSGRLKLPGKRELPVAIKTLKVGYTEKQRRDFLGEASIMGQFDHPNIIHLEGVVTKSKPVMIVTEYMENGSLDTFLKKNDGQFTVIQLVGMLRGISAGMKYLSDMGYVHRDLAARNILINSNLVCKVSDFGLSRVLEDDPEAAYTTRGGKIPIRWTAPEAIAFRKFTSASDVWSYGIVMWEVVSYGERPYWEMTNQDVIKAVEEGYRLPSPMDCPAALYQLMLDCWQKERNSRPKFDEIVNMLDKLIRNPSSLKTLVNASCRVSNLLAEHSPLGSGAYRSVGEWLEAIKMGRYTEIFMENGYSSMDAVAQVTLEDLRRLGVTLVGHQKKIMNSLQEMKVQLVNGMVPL
Procedure: as §1, §2

SRM = SRM (Homo sapiens, UniProt Q9H3Y6); assay: TR-FRET kinase assay, SRM; settings: Kinase Concentration 0.5 nM; 50 nM ULight-labeled substrate, 200 micromolar ATP, 2 hours
Procedure: as §1, §2

BRK = BRK (Homo sapiens, UniProt Q13882); assay: TR-FRET kinase assay, BRK; settings: Kinase Concentration 3 nM; 50 nM ULight-labeled substrate, 200 micromolar ATP, 2 hours
Procedure: as §1, §2

JAK2 = JAK2 (Homo sapiens, UniProt O60674); assay: TR-FRET kinase assay, JAK2; settings: Kinase Concentration 1 nM; 50 nM ULight-labeled substrate, 200 micromolar ATP, 2 hours
Procedure: as §1, §2

TRKA (NTRK1) = TRKA (NTRK1) (Homo sapiens, UniProt P04629); assay: TR-FRET kinase assay, TRKA (NTRK1); settings: Kinase Concentration 0.5 nM; 50 nM ULight-labeled substrate, 200 micromolar ATP, 2 hours
TRKA (NTRK1), sequence (P04629 33-796, species assumed): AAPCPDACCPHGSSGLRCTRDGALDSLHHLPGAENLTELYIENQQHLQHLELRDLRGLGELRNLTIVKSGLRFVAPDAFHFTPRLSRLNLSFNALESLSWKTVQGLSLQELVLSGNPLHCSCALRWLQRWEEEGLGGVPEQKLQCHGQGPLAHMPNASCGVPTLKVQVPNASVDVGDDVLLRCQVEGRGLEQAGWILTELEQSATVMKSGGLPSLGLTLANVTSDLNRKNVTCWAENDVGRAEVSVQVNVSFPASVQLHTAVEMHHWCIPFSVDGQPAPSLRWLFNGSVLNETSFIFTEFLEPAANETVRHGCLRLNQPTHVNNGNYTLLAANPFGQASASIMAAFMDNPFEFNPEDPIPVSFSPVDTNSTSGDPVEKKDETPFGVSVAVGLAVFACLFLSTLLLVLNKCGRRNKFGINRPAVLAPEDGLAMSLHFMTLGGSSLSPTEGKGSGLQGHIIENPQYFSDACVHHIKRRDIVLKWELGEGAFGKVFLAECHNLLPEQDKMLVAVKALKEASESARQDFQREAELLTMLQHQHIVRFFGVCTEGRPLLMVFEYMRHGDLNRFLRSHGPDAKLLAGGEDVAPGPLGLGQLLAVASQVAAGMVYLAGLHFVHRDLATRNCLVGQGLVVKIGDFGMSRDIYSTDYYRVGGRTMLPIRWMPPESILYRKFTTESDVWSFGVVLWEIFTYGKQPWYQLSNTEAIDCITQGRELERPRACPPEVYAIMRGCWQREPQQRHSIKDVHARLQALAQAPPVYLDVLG
Procedure: as §1, §2

BTK = BTK (Homo sapiens, UniProt Q06187); assay: TR-FRET kinase assay, BTK; settings: Kinase Concentration 0.25 nM; 50 nM ULight-labeled substrate, 200 micromolar ATP, 2 hours
BTK, sequence (Q06187 whole entry, species assumed): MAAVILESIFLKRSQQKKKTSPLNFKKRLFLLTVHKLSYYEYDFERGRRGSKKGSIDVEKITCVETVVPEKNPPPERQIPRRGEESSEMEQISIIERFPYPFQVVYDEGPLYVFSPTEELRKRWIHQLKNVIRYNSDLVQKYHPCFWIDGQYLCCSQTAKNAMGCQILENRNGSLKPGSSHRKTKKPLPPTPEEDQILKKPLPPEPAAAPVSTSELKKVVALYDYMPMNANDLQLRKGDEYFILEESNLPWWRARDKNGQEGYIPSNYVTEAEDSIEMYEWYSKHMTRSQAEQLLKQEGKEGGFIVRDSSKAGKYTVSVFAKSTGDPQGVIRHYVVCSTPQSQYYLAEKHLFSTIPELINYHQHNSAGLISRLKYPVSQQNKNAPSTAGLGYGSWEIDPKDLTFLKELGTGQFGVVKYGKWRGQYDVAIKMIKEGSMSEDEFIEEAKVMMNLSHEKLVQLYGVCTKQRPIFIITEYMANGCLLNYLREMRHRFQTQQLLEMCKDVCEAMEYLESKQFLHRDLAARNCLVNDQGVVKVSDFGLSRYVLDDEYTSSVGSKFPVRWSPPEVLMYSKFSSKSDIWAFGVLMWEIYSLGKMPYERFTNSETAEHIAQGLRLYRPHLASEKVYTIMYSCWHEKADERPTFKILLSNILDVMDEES
Procedure: as §1, §2

83 tyrosine kinases = assay: Panel of 83 TR-FRET tyrosine kinase assays; settings: 83 tyrosine kinases tested; conditions of Example 1
Procedure: as §1, §2
The BRB2 peptide is tested with 83 tyrosine kinases in assay conditions identical to those used for BRB1 in Example 1. Data obtained with BRB2 indicate that the peptide is phosphorylated by 65 kinases out of 83 (78%), with signal to noise ratio of >3.

PDGFRβ = PDGFRβ (Homo sapiens, UniProt P09619); assay: TR-FRET kinase assay, PDGFRβ; settings: Kinase Concentration 0.25 nM; 50 nM ULight-labeled substrate, 200 micromolar ATP, 2 hours
PDGFRβ, sequence (P09619 33-1106, species assumed): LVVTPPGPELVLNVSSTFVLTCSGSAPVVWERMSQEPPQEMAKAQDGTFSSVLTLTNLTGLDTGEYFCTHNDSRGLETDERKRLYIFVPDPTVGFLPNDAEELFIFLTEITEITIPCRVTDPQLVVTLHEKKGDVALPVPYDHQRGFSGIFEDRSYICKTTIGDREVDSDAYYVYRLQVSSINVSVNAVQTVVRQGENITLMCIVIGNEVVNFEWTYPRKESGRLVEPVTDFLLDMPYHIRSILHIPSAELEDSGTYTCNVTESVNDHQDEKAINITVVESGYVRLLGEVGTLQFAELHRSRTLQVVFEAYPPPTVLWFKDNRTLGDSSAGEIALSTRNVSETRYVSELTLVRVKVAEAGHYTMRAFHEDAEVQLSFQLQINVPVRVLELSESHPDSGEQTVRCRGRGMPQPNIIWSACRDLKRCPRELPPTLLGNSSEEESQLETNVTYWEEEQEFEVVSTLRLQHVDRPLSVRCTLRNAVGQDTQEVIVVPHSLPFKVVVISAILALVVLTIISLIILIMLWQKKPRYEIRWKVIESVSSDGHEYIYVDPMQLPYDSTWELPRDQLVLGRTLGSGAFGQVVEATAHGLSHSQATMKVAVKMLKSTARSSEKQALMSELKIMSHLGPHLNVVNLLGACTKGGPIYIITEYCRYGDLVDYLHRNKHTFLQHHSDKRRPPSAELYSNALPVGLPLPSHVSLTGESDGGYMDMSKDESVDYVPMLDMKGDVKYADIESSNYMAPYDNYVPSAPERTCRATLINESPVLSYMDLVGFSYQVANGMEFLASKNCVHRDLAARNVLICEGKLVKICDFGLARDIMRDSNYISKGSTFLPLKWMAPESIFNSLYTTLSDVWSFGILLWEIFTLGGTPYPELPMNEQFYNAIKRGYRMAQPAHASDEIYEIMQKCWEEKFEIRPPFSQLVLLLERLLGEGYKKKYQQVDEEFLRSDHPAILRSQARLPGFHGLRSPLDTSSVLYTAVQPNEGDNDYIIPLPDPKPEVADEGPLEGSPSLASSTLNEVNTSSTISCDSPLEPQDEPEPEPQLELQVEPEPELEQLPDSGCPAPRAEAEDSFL
Procedure: as §1, §2

LYNa = LYNa (Homo sapiens, UniProt P07948); assay: TR-FRET kinase assay, LYNa; settings: Kinase Concentration 0.5 nM; 50 nM ULight-labeled substrate, 200 micromolar ATP, 2 hours
Procedure: as §1, §2

FRK = FRK (Homo sapiens, UniProt P42685); assay: TR-FRET kinase assay, FRK; settings: Kinase Concentration 0.5 nM; 50 nM ULight-labeled substrate, 200 micromolar ATP, 2 hours
FRK, sequence (P42685 whole entry, species assumed): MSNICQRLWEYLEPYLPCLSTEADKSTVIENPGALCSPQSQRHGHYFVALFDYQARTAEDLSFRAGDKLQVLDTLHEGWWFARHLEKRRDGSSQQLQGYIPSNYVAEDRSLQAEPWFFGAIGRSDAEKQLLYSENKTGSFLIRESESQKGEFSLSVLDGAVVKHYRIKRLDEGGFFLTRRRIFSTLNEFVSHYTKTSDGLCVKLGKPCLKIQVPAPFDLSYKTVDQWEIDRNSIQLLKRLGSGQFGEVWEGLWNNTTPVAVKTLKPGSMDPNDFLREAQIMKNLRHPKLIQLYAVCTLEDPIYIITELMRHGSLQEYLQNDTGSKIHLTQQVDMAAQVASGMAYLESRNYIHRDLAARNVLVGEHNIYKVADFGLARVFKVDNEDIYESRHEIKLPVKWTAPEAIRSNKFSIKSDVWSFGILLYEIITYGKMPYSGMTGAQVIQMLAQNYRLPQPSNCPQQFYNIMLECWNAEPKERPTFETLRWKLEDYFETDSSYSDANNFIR
Procedure: as §1, §2

DDR2 = target: T1, DDR2 (Homo sapiens, UniProt Q16832); assay: TR-FRET kinase assay, DDR2; settings: Kinase Concentration 0.5 nM; 50 nM ULight-labeled substrate, 200 micromolar ATP, 2 hours
T1 sequence (Q16832 22-855): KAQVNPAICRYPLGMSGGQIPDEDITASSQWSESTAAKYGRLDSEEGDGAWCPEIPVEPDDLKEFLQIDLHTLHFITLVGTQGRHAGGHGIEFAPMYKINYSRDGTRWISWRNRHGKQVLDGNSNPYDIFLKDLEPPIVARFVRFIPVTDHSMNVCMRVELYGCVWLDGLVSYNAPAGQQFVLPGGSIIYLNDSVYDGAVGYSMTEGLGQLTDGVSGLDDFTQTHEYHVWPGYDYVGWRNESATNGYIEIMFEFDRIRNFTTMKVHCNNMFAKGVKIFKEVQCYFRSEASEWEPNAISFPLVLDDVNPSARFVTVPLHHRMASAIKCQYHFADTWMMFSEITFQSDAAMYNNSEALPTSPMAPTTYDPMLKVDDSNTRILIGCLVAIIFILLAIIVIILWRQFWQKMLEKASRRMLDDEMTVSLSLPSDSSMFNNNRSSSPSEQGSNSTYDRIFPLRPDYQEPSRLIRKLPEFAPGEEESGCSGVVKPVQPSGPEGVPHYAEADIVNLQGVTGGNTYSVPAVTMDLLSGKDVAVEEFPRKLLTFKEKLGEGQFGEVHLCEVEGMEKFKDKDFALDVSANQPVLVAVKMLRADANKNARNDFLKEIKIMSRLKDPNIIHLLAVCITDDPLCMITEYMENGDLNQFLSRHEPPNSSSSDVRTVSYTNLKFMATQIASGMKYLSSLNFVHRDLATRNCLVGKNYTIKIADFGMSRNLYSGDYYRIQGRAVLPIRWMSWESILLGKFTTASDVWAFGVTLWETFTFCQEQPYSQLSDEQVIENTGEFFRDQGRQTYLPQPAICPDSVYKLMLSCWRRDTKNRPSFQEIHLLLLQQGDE
Procedure: as §1, §2

TIE2 = TIE2 (Homo sapiens, UniProt Q02763); assay: TR-FRET kinase assay, TIE2; settings: Kinase Concentration 0.5 nM; 50 nM ULight-labeled substrate, 200 micromolar ATP, 2 hours
Procedure: as §1, §2

YES = YES (Homo sapiens, UniProt P07947); assay: TR-FRET kinase assay, YES; settings: Kinase Concentration 0.25 nM; 50 nM ULight-labeled substrate, 200 micromolar ATP, 2 hours
Procedure: as §1, §2

ROR2 = ROR2 (Homo sapiens, UniProt Q01974); assay: TR-FRET kinase assay, ROR2; settings: Kinase Concentration 20 nM; 50 nM ULight-labeled substrate, 200 micromolar ATP, 2 hours
Procedure: as §1, §2

FES, sequence (P07332 whole entry, species assumed): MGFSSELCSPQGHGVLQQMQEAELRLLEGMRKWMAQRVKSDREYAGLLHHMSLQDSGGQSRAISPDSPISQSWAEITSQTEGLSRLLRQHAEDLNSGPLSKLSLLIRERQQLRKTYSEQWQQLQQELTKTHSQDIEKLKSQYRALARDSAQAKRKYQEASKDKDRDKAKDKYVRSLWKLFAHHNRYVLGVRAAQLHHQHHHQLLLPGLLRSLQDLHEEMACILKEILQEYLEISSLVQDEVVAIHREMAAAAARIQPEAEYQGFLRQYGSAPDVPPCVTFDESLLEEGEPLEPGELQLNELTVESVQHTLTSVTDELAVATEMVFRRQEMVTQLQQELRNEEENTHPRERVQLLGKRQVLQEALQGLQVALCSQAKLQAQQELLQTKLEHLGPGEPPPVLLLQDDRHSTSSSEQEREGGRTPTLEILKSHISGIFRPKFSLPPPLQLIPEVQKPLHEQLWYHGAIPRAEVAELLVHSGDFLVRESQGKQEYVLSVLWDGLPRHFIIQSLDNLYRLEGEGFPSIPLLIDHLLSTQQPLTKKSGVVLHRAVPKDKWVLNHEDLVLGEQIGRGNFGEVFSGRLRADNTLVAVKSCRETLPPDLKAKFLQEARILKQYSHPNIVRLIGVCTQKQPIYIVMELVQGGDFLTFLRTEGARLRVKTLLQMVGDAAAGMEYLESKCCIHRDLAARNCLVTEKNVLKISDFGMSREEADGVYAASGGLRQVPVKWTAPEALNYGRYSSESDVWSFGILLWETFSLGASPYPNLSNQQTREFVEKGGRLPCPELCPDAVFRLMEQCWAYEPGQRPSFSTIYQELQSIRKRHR

C AYE AYE AYE K EYA EYA EYA K AYA EYE R (CAYEAYEAYEKEYAEYAEYAKAYAEYER; tyrosine kinase substrate peptide) [BRB1]
Signal to Noise ratio with BRB1 Peptide (FES): 24.9
Signal to Noise ratio with BRB1 Peptide (ALK): 8.8
Signal to Noise ratio with BRB1 Peptide (EphA5): 35.5
Signal to Noise ratio with BRB1 Peptide (SRM): 32.5
Signal to Noise ratio with BRB1 Peptide (BRK): 2.4
Signal to Noise ratio with BRB1 Peptide (JAK2): 35.5
Signal to Noise ratio with BRB1 Peptide (TRKA (NTRK1)): 23.2
Signal to Noise ratio with BRB1 Peptide (BTK): 6.8
Number of kinases out of 83 that phosphorylated the peptide with signal to noise ratio of >3 (83 tyrosine kinases): 72
Percentage of 83 kinases that phosphorylated the peptide with signal to noise ratio of >3 (83 tyrosine kinases): 87%
Signal to Noise ratio with BRB1 Peptide (PDGFRβ): 4.7
Signal to Noise ratio with BRB1 Peptide (LYNa): 32.5
Signal to Noise ratio with BRB1 Peptide (FRK): 9.7
Signal to Noise ratio with BRB1 Peptide (DDR2): 1.0
Signal to Noise ratio with BRB1 Peptide (TIE2): 17.7
Signal to Noise ratio with BRB1 Peptide (YES): 28.0
Signal to Noise ratio with BRB1 Peptide (ROR2): 1.0
